Assay results reported in FireProtDB (doi:10.1021/bi00444a012).

B1: Subtilisin BPN', P00782 (parent)
chain: MRGKKVWISLLFALALIFTMAFGSTSSAQAAGKSNGEKKYIVGFKQTMSTMSAAKKKDVISEKGGKVQKQFKYVDAASATLNEKAVKELKKDPSVAYVEEDHVAHAYAQSVPYGVSQIKAPALHSQGYTGSNVKVAVIDSGIDSSHPDLKVAGGASMVPSETNPFQDNNSHGTHVAGTVAALNNSIGVLGVAPSASLYAVKVLGADGSGQYSWIINGIEWAIANNMDVINMSLGGPSGSAALKAAVDKAVASGVVVVAAAGNEGTSGSSSTVGYPGKYPSVIAVGAVDSSNQRASFSSVGPELDVMAPGVSIQSTLPGNKYGAYNGTSMASPHVAGAAALILSKHPNWTNTQVRSSLENTTTKLGDSFYYGKGLINVQAAAQ

Variants of: B1
Conditions: Bacillus amyloliquefaciens, pH 8, Thermal, DSC, Tris-HCl 5.0 mM, KCl 50 mM, reversible: yes, structure 1SUP, whole UniProt chain shown; for ddG of mutation (higher = less stable): 58.8 °C

Variant	ddG of mutation (higher = less stable) [kcal/mol]	Tm [°C]	change of melting temperature, mutant - wild type (higher = more stable) [°C]
MRGKKVWISLLFALALIFTMAFGSTSSAQAAGKSNGEKKYIVGFKQTMSTMSAAKKKDVISEKGGKVQKQFKYVDAASATLNEKAVKELKKDPSVAYVEEDHVAHAYAQSVPYGVSQIKAPALHSQGYTGSNVKVAVIDSGIDSSHPDLKVAGGASMVPSETNPFQDNNSHGTHVAGTVAALDNSIGVLGVAPSASLYAVKVLGADGSGQYSWIINGIEWAIANNMDVINMSLGGPSGSAALKAAVDKAVASGVVVVAAAGNEGTSGSSSTVGYPGKYPSVIAVGAVDSSNQRASFSSVGPELDVMAPGVSIQSTLPGNKYGAYNGTSMASPHVAGAAALILSKHPNWTNTQVRSSLENTTTKLGDSFYYGKGLINVQAAAQ [N183D]	-0.45	60.2	1.7
MRGKKVWISLLFALALIFTMAFGSTSSAQAAGKSNGEKKYIVGFKQTMSTMSAAKKKDVISEKGGKVQKQFKYVDAASATLNEKAVKELKKDPSVAYVEEDHVAHAYAQSVPYGVSQIKAPALHSQGYTGSNVKVAVIDSGIDSSHPDLKVAGGASMVPSETNPFQDNNSHGTHVAGTVAALNNSIGVLGVAPSASLYAVKVLGADGSGQYSWIINGIEWAIANNMDVINMSLGGPSGSAALKAAVDKAVASGVVVVAAAGNEGTSGSSSTVGYPAKYPSVIAVGAVDSSNQRASFSSVGPELDVMAPGVSIQSTLPGNKYGAYNGTSMASPHVAGAAALILSKHPNWTNTQVRSSLENTTTKLGDSFYYGKGLINVQAAAQ [G276A]	-0.3	59.6	1.1
MRGKKVWISLLFALALIFTMAFGSTSSAQAAGKSNGEKKYIVGFKQTMSTMSAAKKKDVISEKGGKVQKQFKYVDAASATLNEKAVKELKKDPSVAYVEEDHVAHAYAQSVPYGVSQIKAPALHSQGYTGSNVKVAVIDSGIDSSHPDLKVAGGASFVPSETNPFQDNNSHGTHVAGTVAALNNSIGVLGVAPSASLYAVKVLGADGSGQYSWIINGIEWAIANNMDVINMSLGGPSGSAALKAAVDKAVASGVVVVAAAGNEGTSGSSSTVGYPGKYPSVIAVGAVDSSNQRASFSSVGPELDVMAPGVSIQSTLPGNKYGAYNGTSMASPHVAGAAALILSKHPNWTNTQVRSSLENTTTKLGDSFYYGKGLINVQAAAQ [M157F]	-0.48	60.3	1.8
MRGKKVWISLLFALALIFTMAFGSTSSAQAAGKSNGEKKYIVGFKQTMSTMSAAKKKDVISEKGGKVQKQFKYVDAASATLNEKAVKELKKDPSVAYVEEDHVAHAYAQSVPYGVSQIKAPALHSQGYTGSNVKVAVIDSGIDSSHPDLKVAGGASMVPSETNPFQDNNSHGTHVAGTVAALNNSIGVLGVAPSASLYAVKVLGADGSGQYSWIINGIEWAIANNMDVINMSLGGPSGSAALKAAVDKAVASGVVVVAAAGNEGTSGSSSTVGYPGKYPSVIAVGAVDSSNQRASFSSVGPELDVMAPGVSIQSTLPGNKYGAKNGTSMASPHVAGAAALILSKHPNWTNTQVRSSLENTTTKLGDSFYYGKGLINVQAAAQ [Y324K]	-0.72		
MRGKKVWISLLFALALIFTMAFGSTSSAQAAGKSNGEKKYIVGFKQTMSTMSAAKKKDVISEKGGKVQKQFKYVDAASATLNEKAVKELKKDPSVAYVEEDHVAHAYAQSVPYGVSQIKAPALHSQGYTGSNVKVAVIDSGIDSSHPDLKVAGGASMVPSETNPFQDNNSHGTHVAGTVAALNNSIGVLGVAPSASLYAVKVLGADGSGQYSWIINGIEWAIANNMDVINMSLGGPSGSAALKAAVDKAVASGVVVVAAAGNEGTSGSSSTVGYPGKYPSVIAVGAVDSSNQRASFSSVGPELDVMAPGVSICSTLPGNKYGAYNGTSMASPHVAGAAALILSKHPNWTNTQVRSSLENTTTKLGDSFYYGKGLINVQAAAQ [Q313C]	-1.25	63.2	4.7
MRGKKVWISLLFALALIFTMAFGSTSSAQAAGKSNGEKKYIVGFKQTMSTMSAAKKKDVISEKGGKVQKQFKYVDAASATLNEKAVKELKKDPSVAYVEEDHVAHAYAQSVPYGVSQIKAPALHSQGYTGSNVKVAVIDSGIDSSHPDLKVAGGASMVPSETNPFQDNNSHGTHVAGTVAALNNSIGVLGVAPSASLYAVKVLGADGSGQYSWIINGIEWAIANNMDVINMSLGGPSGSAALKAAVDKAVASGVVVVAAAGNEGTSGSSSTVGYPGKYPSVIAVGAVDSSNQRASFSSVGPELDVMAPGVSIQSTLPGNKYGAYSGTSMASPHVAGAAALILSKHPNWTNTQVRSSLENTTTKLGDSFYYGKGLINVQAAAQ [N325S]	-1.07	62.5	4
